From patent US20260001928A1 (CORTERIA PHARMACEUTICALS, priority 2022, published 2026)
*1 amine or outer side, *2 acyl side, *3 side chain or, on linkers, in order; H or OH if unused. Where no end group is shown, it is not given here. Side-chain parts run from the residue outwards. [ ]: non-standard residue; d: D form. The star is where a group is joined. γGlu = O=C(O)[C@H](CCC(=O)[*:2])N[*:1]; C14 diacid = O=C(O)CCCCCCCCCCCCC(=O)*; NMeI = CC[C@H](C)[C@H](NC)C(=O)O; Pentanoyl = CCCCC(=O)*; AEEA = NCCOCCOCC(=O)O; Aib = CC(C)(N)C(=O)O

Assays:
[1] = target: T1, CRF1R receptor (UniProt P34998 24-415, limits assumed); test: cell-based or functional assay
T1 sequence (looked up): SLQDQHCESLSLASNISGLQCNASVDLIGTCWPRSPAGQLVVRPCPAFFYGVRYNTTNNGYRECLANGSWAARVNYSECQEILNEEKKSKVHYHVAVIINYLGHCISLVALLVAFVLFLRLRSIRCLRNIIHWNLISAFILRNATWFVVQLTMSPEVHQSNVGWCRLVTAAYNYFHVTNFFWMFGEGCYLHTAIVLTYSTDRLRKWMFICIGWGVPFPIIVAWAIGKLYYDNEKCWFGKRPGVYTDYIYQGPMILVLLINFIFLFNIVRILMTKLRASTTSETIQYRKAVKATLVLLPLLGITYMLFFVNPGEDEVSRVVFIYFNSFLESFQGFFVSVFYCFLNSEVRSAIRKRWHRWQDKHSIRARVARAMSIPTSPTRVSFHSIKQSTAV

[2] = target: human corticotropin-releasing factor 2a (CRF2a receptor) (human), Q13324; test: cell-based or functional assay
Chain of human corticotropin-releasing factor 2a (CRF2a receptor) (human), Q13324 (Q13324 20-411): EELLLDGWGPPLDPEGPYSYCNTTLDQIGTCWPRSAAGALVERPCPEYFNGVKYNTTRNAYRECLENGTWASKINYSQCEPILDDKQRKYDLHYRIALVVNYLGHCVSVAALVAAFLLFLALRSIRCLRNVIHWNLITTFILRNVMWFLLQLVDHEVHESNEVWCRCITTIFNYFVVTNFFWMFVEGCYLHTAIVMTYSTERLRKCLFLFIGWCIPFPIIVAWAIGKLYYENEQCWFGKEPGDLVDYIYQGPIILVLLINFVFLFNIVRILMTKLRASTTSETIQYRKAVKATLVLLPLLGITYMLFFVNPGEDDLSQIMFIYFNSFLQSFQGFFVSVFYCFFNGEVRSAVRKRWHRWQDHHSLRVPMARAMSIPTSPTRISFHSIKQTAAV

B1: SEQ ID NO 179 (peptide)
peptide: [NMeI]VLSLD[dV]PIKLK([AEEA-AEEA-γGlu-γGlu-C14 diacid])KILLEQEKQKKQREQAETN[Aib]QILAQV-NH2
modifications: N-terminus assumed
SMILES: CC[C@H](C)[C@H](NC)C(=O)N[C@H](C(=O)N[C@@H](CC(C)C)C(=O)N[C@@H](CO)C(=O)N[C@@H](CC(C)C)C(=O)N[C@@H](CC(=O)O)C(=O)N[C@@H](C(=O)N1CCC[C@H]1C(=O)N[C@H](C(=O)N[C@@H](CCCCN)C(=O)N[C@@H](CC(C)C)C(=O)N[C@@H](CCCCNC(=O)COCCOCCNC(=O)COCCOCCNC(=O)CC[C@H](NC(=O)CC[C@H](NC(=O)CCCCCCCCCCCCC(=O)O)C(=O)O)C(=O)O)C(=O)N[C@@H](CCCCN)C(=O)N[C@H](C(=O)N[C@@H](CC(C)C)C(=O)N[C@@H](CC(C)C)C(=O)N[C@@H](CCC(=O)O)C(=O)N[C@@H](CCC(N)=O)C(=O)N[C@@H](CCC(=O)O)C(=O)N[C@@H](CCCCN)C(=O)N[C@@H](CCC(N)=O)C(=O)N[C@@H](CCCCN)C(=O)N[C@@H](CCCCN)C(=O)N[C@@H](CCC(N)=O)C(=O)N[C@@H](CCCNC(=N)N)C(=O)N[C@@H](CCC(=O)O)C(=O)N[C@@H](CCC(N)=O)C(=O)N[C@@H](C)C(=O)N[C@@H](CCC(=O)O)C(=O)N[C@H](C(=O)N[C@@H](CC(N)=O)C(=O)NC(C)(C)C(=O)N[C@@H](CCC(N)=O)C(=O)N[C@H](C(=O)N[C@@H](CC(C)C)C(=O)N[C@@H](C)C(=O)N[C@@H](CCC(N)=O)C(=O)N[C@H](C(N)=O)C(C)C)[C@@H](C)CC)[C@@H](C)O)[C@@H](C)CC)[C@@H](C)CC)C(C)C)C(C)C
Q: With B1 as the binder, how does the “Emax (% I)” value [1] read?
A: -4%

Q: And the EC50 [nM] (cAMP) [2]?
A: 15.6 nM

B2: SEQ ID NO 177 (peptide)
peptide: [NMeI]VLSLD[dV]PIKLK([γGlu-C14 diacid])KILLEQEKQK[Aib]QREQAETN[Aib]QILAQV-NH2
modifications: N-terminus assumed
SMILES: CC[C@H](C)[C@H](NC)C(=O)N[C@H](C(=O)N[C@@H](CC(C)C)C(=O)N[C@@H](CO)C(=O)N[C@@H](CC(C)C)C(=O)N[C@@H](CC(=O)O)C(=O)N[C@@H](C(=O)N1CCC[C@H]1C(=O)N[C@H](C(=O)N[C@@H](CCCCN)C(=O)N[C@@H](CC(C)C)C(=O)N[C@@H](CCCCNC(=O)CC[C@H](NC(=O)CCCCCCCCCCCCC(=O)O)C(=O)O)C(=O)N[C@@H](CCCCN)C(=O)N[C@H](C(=O)N[C@@H](CC(C)C)C(=O)N[C@@H](CC(C)C)C(=O)N[C@@H](CCC(=O)O)C(=O)N[C@@H](CCC(N)=O)C(=O)N[C@@H](CCC(=O)O)C(=O)N[C@@H](CCCCN)C(=O)N[C@@H](CCC(N)=O)C(=O)N[C@@H](CCCCN)C(=O)NC(C)(C)C(=O)N[C@@H](CCC(N)=O)C(=O)N[C@@H](CCCNC(=N)N)C(=O)N[C@@H](CCC(=O)O)C(=O)N[C@@H](CCC(N)=O)C(=O)N[C@@H](C)C(=O)N[C@@H](CCC(=O)O)C(=O)N[C@H](C(=O)N[C@@H](CC(N)=O)C(=O)NC(C)(C)C(=O)N[C@@H](CCC(N)=O)C(=O)N[C@H](C(=O)N[C@@H](CC(C)C)C(=O)N[C@@H](C)C(=O)N[C@@H](CCC(N)=O)C(=O)N[C@H](C(N)=O)C(C)C)[C@@H](C)CC)[C@@H](C)O)[C@@H](C)CC)[C@@H](C)CC)C(C)C)C(C)C
Q: B2 was tested. Which “Emax (% I)” value [1] did it give?
A: 10%

Q: And the EC50 [nM] (cAMP) [2]?
A: 0.86 nM

B3: SEQ ID NO 178 (peptide)
peptide: [NMeI]VLSLD[dV]PIKLK([AEEA-AEEA-γGlu-C14 diacid])KILLEQEKQKKQREQAETN[Aib]QILAQV-NH2
modifications: N-terminus assumed
SMILES: CC[C@H](C)[C@H](NC)C(=O)N[C@H](C(=O)N[C@@H](CC(C)C)C(=O)N[C@@H](CO)C(=O)N[C@@H](CC(C)C)C(=O)N[C@@H](CC(=O)O)C(=O)N[C@@H](C(=O)N1CCC[C@H]1C(=O)N[C@H](C(=O)N[C@@H](CCCCN)C(=O)N[C@@H](CC(C)C)C(=O)N[C@@H](CCCCNC(=O)COCCOCCNC(=O)COCCOCCNC(=O)CC[C@H](NC(=O)CCCCCCCCCCCCC(=O)O)C(=O)O)C(=O)N[C@@H](CCCCN)C(=O)N[C@H](C(=O)N[C@@H](CC(C)C)C(=O)N[C@@H](CC(C)C)C(=O)N[C@@H](CCC(=O)O)C(=O)N[C@@H](CCC(N)=O)C(=O)N[C@@H](CCC(=O)O)C(=O)N[C@@H](CCCCN)C(=O)N[C@@H](CCC(N)=O)C(=O)N[C@@H](CCCCN)C(=O)N[C@@H](CCCCN)C(=O)N[C@@H](CCC(N)=O)C(=O)N[C@@H](CCCNC(=N)N)C(=O)N[C@@H](CCC(=O)O)C(=O)N[C@@H](CCC(N)=O)C(=O)N[C@@H](C)C(=O)N[C@@H](CCC(=O)O)C(=O)N[C@H](C(=O)N[C@@H](CC(N)=O)C(=O)NC(C)(C)C(=O)N[C@@H](CCC(N)=O)C(=O)N[C@H](C(=O)N[C@@H](CC(C)C)C(=O)N[C@@H](C)C(=O)N[C@@H](CCC(N)=O)C(=O)N[C@H](C(N)=O)C(C)C)[C@@H](C)CC)[C@@H](C)O)[C@@H](C)CC)[C@@H](C)CC)C(C)C)C(C)C
Q: B3 was tested. Which “Emax (% I)” value [1] did it give?
A: 1%

Q: And the EC50 [nM] (cAMP) [2]?
A: 6.5 nM

B4: SEQ ID NO 180 (peptide)
peptide: Pentanoyl-VLSLD[dV]PIKLK([AEEA-AEEA-γGlu-C14 diacid])KILLEQEKQKKQREQAETN[Aib]QILAQV-NH2
SMILES: CCCCC(=O)N[C@H](C(=O)N[C@@H](CC(C)C)C(=O)N[C@@H](CO)C(=O)N[C@@H](CC(C)C)C(=O)N[C@@H](CC(=O)O)C(=O)N[C@@H](C(=O)N1CCC[C@H]1C(=O)N[C@H](C(=O)N[C@@H](CCCCN)C(=O)N[C@@H](CC(C)C)C(=O)N[C@@H](CCCCNC(=O)COCCOCCNC(=O)COCCOCCNC(=O)CC[C@H](NC(=O)CCCCCCCCCCCCC(=O)O)C(=O)O)C(=O)N[C@@H](CCCCN)C(=O)N[C@H](C(=O)N[C@@H](CC(C)C)C(=O)N[C@@H](CC(C)C)C(=O)N[C@@H](CCC(=O)O)C(=O)N[C@@H](CCC(N)=O)C(=O)N[C@@H](CCC(=O)O)C(=O)N[C@@H](CCCCN)C(=O)N[C@@H](CCC(N)=O)C(=O)N[C@@H](CCCCN)C(=O)N[C@@H](CCCCN)C(=O)N[C@@H](CCC(N)=O)C(=O)N[C@@H](CCCNC(=N)N)C(=O)N[C@@H](CCC(=O)O)C(=O)N[C@@H](CCC(N)=O)C(=O)N[C@@H](C)C(=O)N[C@@H](CCC(=O)O)C(=O)N[C@H](C(=O)N[C@@H](CC(N)=O)C(=O)NC(C)(C)C(=O)N[C@@H](CCC(N)=O)C(=O)N[C@H](C(=O)N[C@@H](CC(C)C)C(=O)N[C@@H](C)C(=O)N[C@@H](CCC(N)=O)C(=O)N[C@H](C(N)=O)C(C)C)[C@@H](C)CC)[C@@H](C)O)[C@@H](C)CC)[C@@H](C)CC)C(C)C)C(C)C
Q: Which results are given for B4?
A: Emax (% I) [1]: 2%; EC50 [nM] (cAMP) [2]: 10.7 nM
